Patent US20260063625A1, “COMPOSITIONS FOR AND METHODS OF DETECTING FOOD TOXINS” (priority 2022, published 2026)
Positions count from the first letter of the chain named. Names may count otherwise.

B1: MaSxph: Saxiphilin of Mantella aurantiaca, Golden mantella, SEQ ID NO:3 (protein, listed as Mantella aurantiaca)
chain: MALTFQTALYFTIIGLSFVTSSARDVRWCVISDLEQKKCNDLVGSCKVSGITLVCVHRSSTENCMTAIRDEQADAMFLDSGDVYKASMSPYNLKPIIAESYSSHKECLKKRQEALGGANVLGQFVPQCDEKGSYQPQQCYGSTGHCWCVNAIGEEIVGTKTQPGQTQATCERHDQTKCLKDRQKALAKKMIGGFVPQCDEKGNFKPRQCHGSTGYCWCTNANGEKIAATNTPPQQSPPTCERHDLDSCHYAVAVVKKSSIFQFNQLKGKRSCHSGVSKTDGWKAPVSVLVDKNLLSWDRAAKESIEKAVSKFFSDSCIPGATETNLCNQCMGEGGKKCMSSHDEPYYGDHGAFRCLKEDKGDVAFLKNTVLSDTHSEDYELLCPDNTRKPLNKYKECNLGKVPADAVVTRKSGDKIKDINDFLLEAQKKHCQLFSSAHGKDLMFDDSTTQLSLLPPEVDVFFFLGVQWLNTMKTLTADVKPPSKNKVRWCTVNNLEKMKCDDWSAVSGGAIECTEASSPEHCIKQIVKGEADAVTLDVQYMYEALKCGLLPAVEEYHNKDDFGPCKTPGSEIKDFGAKRAVALVKKSNKDINWHNLKGKKSCHTGVGDQAGWIIPVGLISRQIDNCNIDSFFSESCAPGSDTTSNFCKLCIGDPSNPMANTKCSLSDKEAYHGNEGAIRCLVEKGDVAFVHHTAVFENTDGKNPAEWAANLKSEDFEILCLDGSRAPVSNYMTCRLSGVPPRAIVTREESVSDVVRILINQQSLFGRNGFEKDMFQMFSSNKGQNLLFNDGTQCLIEFDRQPRGIMEDYFGKPYYNAVYNTSKCVLPSELTSACTFKHC
B2: OsSxph: Saxiphilin of Oophaga sylvatica, Little devil poison frog, SEQ ID NO:5 (protein, listed as Oophaga sylvatica)
chain: MRMTLQVLLCLCLLVLSSAAPNSRNVRWCVTSDTEEQKCNDLVTSCHVDEILLICVKKSSKEDCVRAISNGEADAISLDSKDVYKASLDPFNLKPIMTEAYSESEQTPCMRHRQSVLGGKKMIIGAFVPKCDEKGNYVPKQCHDSTGFCWCLNENGEEIEGTRTPPGNSGLTCENKANKPPCLKERQKLLSAKPSPAVFVPECDEKGNYRPEQSHVYSWCVDEYGEEVLGSRTFPGKPPKPCEASGETPCIKERNKVLSAAEPLPGAFVPDCDEKGYFSPLQFHGSTGHSWCVTKNGEEIKGTRTRPGQTPPTCDVPAPATLHYAVAVVKKSSSFQLDQLKGKRSCHSAVGEAAGWVAPLNVLLKKKFLLWEEPEQKSTEKVASEIFSASCAAGAQEANLCEQCAGQEDKCTRGPGEPYYGDEGAIRCLRDDKGDVAFVEDTALTGQYSDNFELLCPDNTRRPLSQYKICNFGSVPRHAVVTRSTGDKMKEITEYLLQAQKKECKLFSSTHGKDLLFEDTTSALIALPSGMDTFLFLGPDLFNGMKTLNGAHPPRVKQKIRWCPQNKNEKKKCDDWSSVSGGSIKCTEPSSALECIKMILKDEADAVNLDAEHAYTALKCGLLPSLEEYRNKDDLIVCQIPGAEYSEFGSYRIVALVKKTDKDITWNNLQGKKSCHTHVGDMIGWNIPVYLISKKTKNCDLGSYFSQSCAPGSPIDSNLCKLCIGDPQNTEANTKCSLSDKEAYYGNEGAVRCLVETGDVAFVPHTAVFENTDGKNPALWAKDLKSTDFELLCPDGSRAPVSDYKKCKLSGIANHVTVTRPESVKDVVRITQNQESLYGRTGSQKDIFQMFSSSYGQNLLFNDRTQCLFEFDRMLDRDIMDDYLGKPFHKHLMSDNDCLPKSALATACSFHH
B3: RiSxph: Saxiphilin of Ranitomeya imitator, Mimic poison frog, SEQ ID NO:6 (protein)
chain: MRRSSYAASQEMRMTLRVLLCLCLWALSSAAPNTRNVRWCVTSDTEEQKCNDLVTSCHVDEILLICVKKSSTEDCVRAISNGEADAISLDSKDVYKASLDPFNLKPIMTEAYSESEHTPCMRHRQSVLGGKIMKIGAFVPKCDEKGNYVPKQCHGSTGYCWCLNENGEEIEGTRTPPGNPGLTCENKANKPPCLKERQKLLSAKPSPAVFVPECDEKGNYRPQQSHVYSWCVDEYGEEVFGSRSFPGKPPKPCEASGETPCIKERNKVLSAAEPLLGAFVPDCDEKGYFSPLQSHGSTGYSWCVTKNGDEIKGTRTGPGQSPPTCEVPAPVTLHYAVAVVKKSSSFHLDQLKGKRSCHSAVGEAAGWVAPLNVLLKKKLLLWEEPEPKTIEKVASEIFSASCAPGAQEANLCEQCAGQEDKCTRGPGEPYYGDEGAFRCLREDKGDVAFVEDTALTGQYSDNFELLCPDNTRRPLSQYKICNFGRIPRHAVVTRSSGDKMKDITEYLLQAQKKECKLFSSTHGKDLLFEDTTSALIALPSAMDTFLFLGPDLFNGMKTLNGARPPQVNQQIRWCPQSKNEKKKCDDWSSVSGGAIKCTEPSSGLECIKMILKGEAEAVNLDIEHSYIALKCGLLPSVDEYRNKDDLIPCQIPGSEYSEFGSYRIVALVKKTDKDLTWNNLQGKKSCHTRAGDMIGWNIPVYLISKKTKNCDLGSYFSQSCAPGSPIDSNLCKLCIGDPQNPQANTKCSISDKEAYYGHEGAIRCLVEKGDVAFVPHTAIFENTDGKNPALWAKDLKSTDFELLCPDGSRAPVNDYKKCKLSGIANQIAITRPESVKDVVRIIQNQQSLYGRTGSQKDIFQMFSSSYGQNLLFSDRTQCLVEFDRMLDRDIMDDYFGKPFHKHLLRDNDCLPKSALASACSFHH
modifications: Ranitomeya imitator
B4: F784S: RcSxph mutant F784S (protein)
chain: MAPTFQTALFFTIISLSFAAPNAKQVRWCAISDLEQKKCNDLVGSCNVPDITLVCVLRSSTEDCMTAIKDGQADAMFLDSGEVYEASKDPYNLKPIIAEPYSSNRDLQKCLKERQQALAKKMIGHYIPQCDEKGNYQPQQCHGSTGHCWCVNAMGEKISGTNTPPGQTRATCERHELPKCLKERQVALGGDEKVLGRFVPQCDEKGNYEPQQFHGSTGYSWCVNAIGEEIAGTKTPPGKIPATCQKHDLVTTCHYAVAMVKKSSAFQFNQLKGKRSCHSGVSKTDGWKALVTVLVEKKLLSWDGPAKESIQRAMSKFFSVSCIPGATQTNLCKQCKGEEGKNCKNSHDEPYYGNYGAFRCLKEDMGDVAFLRSTALSDEHSEVYELLCPDNTRKPLNKYKECNLGTVPAGTVVTRKISDKTEDINNFLMEAQKRQCKLFSSAHGKDLMFDDSTLQLALLSSEVDAFLYLGVKLFHAMKALTGDAHLPSKNKVRWCTINKLEKMKCDDWSAVSGGAIACTEASCPKGCVKQILKGEADAVKLEVQYMYEALMCGLLPAVEEYHNKDDFGPCKTPGSPYTDFGTLRAVALVKKSNKDINWNNIKGKKSCHTGVGDIAGWVIPVSLIRRQNDNSDIDSFFGESCAPGSDTKSNLCKLCIGDPKNSAANTKCSLSDKEAYYGNQGAFRCLVEKGDVAFVPHTVVFENTDGKNPAVWAKNLKSEDFELLCLDGSRAPVSNYKSCKLSGIPPPAIVTREESISDVVRIVANQQSLYGRKGFEKDMFQLFSSNKGNNLLFNDNTQCLITSDRQPKDIMEDYFGKPYYTTVYGASRSAMSSELISACTIKHC
B5: Q787E: RcSxph mutant Q787E (protein)
chain: B4 chain with S803F, Q806E
B6: K789A: RcSxph mutant K789A (protein)
chain: B4 chain with S803F, K808A
B7: I782F: RcSxph mutant I782F (protein)
chain: B4 chain with I801F, S803F
B8: T563A: RcSxph mutant T563A (protein)
chain: B4 chain with T582A, S803F
B9: Y795A: RcSxph mutant Y795A (protein)
chain: B4 chain with S803F, Y814A
B10: I782A/Y558A: RcSxph double mutant I782A/Y558A (protein)
chain: B4 chain with Y577A, I801A, S803F
B11: D785A: RcSxph mutant D785A (protein)
chain: B4 chain with S803F, D804A
B12: Q787A: RcSxph mutant Q787A (protein)
chain: B4 chain with S803F, Q806A
B13: F784A: RcSxph mutant F784A (protein)
chain: B4 chain with S803A
B14: Y558F: RcSxph mutant Y558F (protein)
chain: B4 chain with Y577F, S803F

experiment: Fluorescence polarization (FP) binding to fluorescein labeled STX; settings: […]G = RT ln (Kd(XSxph)/Kd(RcSxph)); T = 298K
Description: […]; Measurements were performed at 25° C. on a Synergy H1 microplate reader (BioTek) using the polarization filter setting (excitation 485 nm, emission 528 nm). […]. The dissociation constants were calculated using GraphPad Prism by fitting fluorescence millipolarization (mP=P·10^−3, where P is polarization) as a function of Sxph concentration using the equation: P={(Pbound−Pfree) [Sxph]/(Kd+[Sxph])}+Pfree, where P is the polarization measured at a given Sxph concentration, Pfree is the […], and Pbound is the maximum polarization of Sxph bound by F-STX (Rossi and Taylor, Hansen et al.).

Molecule	[…]G (kcal mol^−1) relative to RcSxph [kcal/mol]
B1	-1.73
B2	-1.32
B3	-1.32

same assay, conditions: […]G = RT ln (KdSxph mutant/KdSxph); T = 298K

Molecule	[…]G (kcal mol^−1) relative to wild-type RcSxph [kcal/mol]
B4	3.60
B5	-0.09
B6	-0.22
B7	0.46
B8	-0.20
B9	0.08
B10	-1.07
B11	0.57
B12	0.25
B13	2.71
B14	-0.10
